Laboratory results published in PMC2225174 (Acta Crystallographica Section F, 2006).

Molecular target: T1, SsoPCNA1 (Sulfolobus solfataricus, UniProt P57766 1-249)
T1 sequence (looked up): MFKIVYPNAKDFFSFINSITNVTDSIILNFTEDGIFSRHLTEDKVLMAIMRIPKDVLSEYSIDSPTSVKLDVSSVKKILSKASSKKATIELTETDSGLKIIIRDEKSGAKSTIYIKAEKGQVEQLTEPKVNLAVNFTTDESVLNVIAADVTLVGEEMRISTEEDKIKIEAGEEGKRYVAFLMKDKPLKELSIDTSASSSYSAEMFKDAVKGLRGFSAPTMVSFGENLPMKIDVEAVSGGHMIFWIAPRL
Test: crystal structure

B1: SsoPCNA2 (natural protein, Sulfolobus solfataricus, UniProt Q97Z84 1-245, looked up)
chain: MKAKVIDAVSFSYILRTVGDFLSEANFIVTKEGIRVSGIDPSRVVFLDIFLPSSYFEGFEVSQEKEIIGFKLEDVNDILKRVLKDDTLILSSNESKLTLTFDGEFTRSFELPLIQVESTQPPSVNLEFPFKAQLLTITFADIIDELSDLGEVLNIHSKENKLYFEVIGDLSTAKVELSTDNGTLLEASGADVSSSYGMEYVANTTKMRRASDSMELYFGSQIPLKLRFKLPQEGYGDFYIAPRAD
- binding result: binds
